This note sets out measurements from publication PMC8519427.

This test has as its target human α-SNAP with an Avitag and a C-terminal 6xHis tag (human) (UniProt P54920). Description: BLI; Octet RED96, 25°C; 0.25 μM biotinylated α-SNAP loaded on streptavidin biosensor tips; analyte: purified Orai1 or Stim1 fragments at varying concentrations; PBS with 2 mg/ml BSA and 0.02% Tween-20; association 5 min, dissociation 10 min; double referencing; global fit to the 1:1 or 2:1 binding model. (In general: In BLI a coated tip is dipped into the sample, and binding shifts an interference pattern.)

Sequence of human α-SNAP with an Avitag and a C-terminal 6xHis tag (human) (P54920 whole entry, the tested form may be a part): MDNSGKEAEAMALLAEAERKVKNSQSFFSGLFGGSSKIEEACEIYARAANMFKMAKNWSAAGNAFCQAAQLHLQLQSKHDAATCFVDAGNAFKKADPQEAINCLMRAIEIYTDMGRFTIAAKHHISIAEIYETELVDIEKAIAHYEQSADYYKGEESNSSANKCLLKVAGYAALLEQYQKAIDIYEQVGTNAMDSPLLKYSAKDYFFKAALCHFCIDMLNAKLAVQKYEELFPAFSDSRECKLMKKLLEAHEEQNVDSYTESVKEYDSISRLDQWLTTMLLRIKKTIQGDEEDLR

A word on the Kd: it is a measure of binding affinity in units of concentration. Read a high Kd as weaker binding. One may read the koff as a measure of how fast the partners let go of each other. Read a high koff as fast dissociation. As usually defined, the kon is the second-order rate constant of association. A high value points to fast association. Take “commercially synthesized Orai1 245–292 peptide (from UniProt Q96D31 245-292)”: the KD1 (2:1 binding model, site 1) came out at 198 nM; the KD2 (2:1 binding model, site 2) is 0.715 µM; the Kd was 369 nM; the koff is 0.000506 s⁻¹. This substance also displayed a koff1 (2:1 binding model, site 1) of 5.62e-05 s⁻¹; a koff2 (2:1 binding model, site 2) of 0.0279 s⁻¹; a kon of 1370 M⁻¹ s⁻¹; a kon1 (2:1 binding model, site 1) of 284 M⁻¹ s⁻¹. Moreover, the kon2 (2:1 binding model, site 2) amounted to 39000 M⁻¹ s⁻¹.
The substance “purified untagged Orai1 1–103 (from UniProt Q96D31 1-103) (domain or fragment)” yielded a Kd of 763 nM, a koff of 0.000117 s⁻¹ and a kon of 154 M⁻¹ s⁻¹.
As for “purified untagged Orai1 245–292 (from UniProt Q96D31 245-292) (domain or fragment)”, the KD1 (2:1 binding model, site 1) is 314 nM; the KD2 (2:1 binding model, site 2) amounted to 202 µM; the Kd turned out to be 548 nM; the koff worked out at 0.000595 s⁻¹. The same substance registered a koff1 (2:1 binding model, site 1) of 0.000213 s⁻¹; a koff2 (2:1 binding model, site 2) of 0.0306 s⁻¹; a kon of 1080 M⁻¹ s⁻¹; a kon1 (2:1 binding model, site 1) of 678 M⁻¹ s⁻¹. Moreover, the kon2 (2:1 binding model, site 2) was 152 M⁻¹ s⁻¹.
